Columns and labels:
Caspase-3 in C-PAE cells = assay: Caspase-3 assay; type: cell-based, bovine; conditions: for effect on Caspase-3 activity: 5 μg/ml
Method: (§1) Tumstatin also altered cell morphology of C-PAE cells as monitored by phase contrast microscopy. After treating cells with 20 μg/ml of Tumstatin in the presence of 10% FCS for 24 hours on fibronectin-coated plates, the typical morphological features of apoptotic cells, membrane blebbing, cytoplasmic shrinkage, and chromatin condensation could be observed. […] Caspase-3 assay: Caspase-3 (CPP32) is an intracellular protease activated at the early stage of apoptosis, and initiates cellular breakdown by degrading structural and DNA repair proteins (Casciola-Rosen, L. et al., 1996, J. Exp. Med. 183:1957-64; Salvesen, G. S. et al., 1997, Cell 91:443-46). The protease activity of Caspase-3 was measured spectrophotometrically by detection of the chromophore (p-nitroanilide) cleaved from the labeled substrate (DEVD-pNA). C-PAE cells or PC-3 cells (0.5×10^6 per well) were plated onto a 6-well plate precoated with fibronectin (10 μg/ml) in DMEM supplemented with 10% FCS, and incubated overnight. The next day, the medium was replaced with DMEM containing 2% FCS and then incubated overnight at 37° C. Then cells were then stimulated with bFGF (3 ng/ml) in DMEM supplemented with 2% FCS, and also containing either TNF-α (80 ng/ml, positive control) or Tumstatin (10 μg/ml), and incubated for 24 hours. Controls received PBS buffer. After 24 hours, the supernatant cells were collected, and attached cells were trypsinized and combined with the supernatant cells. Cells were counted and resuspended in cell lysis buffer (Clontech) at a concentration of 4×10^7 cells/ml. The rest of the protocol followed the manufacturer's instructions (Clontech). A specific inhibitor of Caspase-3, DEVD-fmk (Asp-Glu-Val-Asp-fluoromethyl ketone) was used to confirm the specificity of the assay. The absorbance was measured in a microplate reader (Bio-Rad, Hercules, Calif., USA) at 405 nm. The assay was repeated three times for each cell type.
Apoptosis was also evaluated by measuring Caspase-3 activity as described in Example 27, above. The results are shown in FIG. 35, which is a histogram showing Caspase-3 activity as a measure of absorbance at OD405 (y-axis) of C-PAE cells treated (x-axis) with 5 μg/ml Tum-1, Tum-2, Tum-3 or Tum-4, or 80 ng/ml TNF-α or PBS buffer (control).
Caspase-3 activity was also assayed as described above. DEVD-fmk, a specific caspase-3 inhibitor, was used as an internal control to show specificity of Tumstatin-44-131. TNF-α (80 ng/ml) was used as a positive control. The experiments were repeated three times.
The protease activity of Caspase-3 in cells treated with T3 peptide was measured spectrophotometrically by detection of the chromophore (p-nitroanilide) cleaved from the labeled substrate (DEVD-pNA). […] In PC-3 nonendothelial cells, there was no difference in Caspase-3 activity between control treatments and T3 peptide-treated cells.

Caspase-3 in PC-3 cells = assay: Caspase-3 assay; type: cell-based, human
Method: as §1, with “After 24 hours, the supernatant cells were collected, and attached cells were trypsinized and combined with the supernatant cells.” left out, “The rest of the protocol followed the manufacturer's instructions (Clontech). A specific inhibitor of Caspase-3, DEVD-fmk (Asp-Glu-Val-Asp-fluoromethyl ketone) was used to confirm the specificity of the assay.” left out, “The assay was repeated three times for each cell type.” left out
The results are shown in FIG. 53, which is a histogram showing caspase-3 activity (as measured at OD405, y-axis) of (x-axis) the control, control+DEVD-fmk, TNF-α, TNF-α+DEVD-fmk, Tumstatin-44-131 (1 μg/ml and 10 μg/ml), and Tumstatin-44-131 (10 μg/ml)+DEVD-fmk. […]
The protease activity of Caspase-3 in cells treated with T3 peptide was measured spectrophotometrically by detection of the chromophore (p-nitroanilide) cleaved from the labeled substrate (DEVD-pNA). […]

human αvβ3 protein = biological target: T1, human αvβ3 protein (Homo sapiens, UniProt P05106+P06756); assay: Competition proliferation assay with soluble αvβ3 protein, C-PAE cells; type: cell-based, bovine
T1 construct: purchased CHEMICON Int'l, Temecula, Calif., USA
T1 sequence (P06756 31-889 limits assumed): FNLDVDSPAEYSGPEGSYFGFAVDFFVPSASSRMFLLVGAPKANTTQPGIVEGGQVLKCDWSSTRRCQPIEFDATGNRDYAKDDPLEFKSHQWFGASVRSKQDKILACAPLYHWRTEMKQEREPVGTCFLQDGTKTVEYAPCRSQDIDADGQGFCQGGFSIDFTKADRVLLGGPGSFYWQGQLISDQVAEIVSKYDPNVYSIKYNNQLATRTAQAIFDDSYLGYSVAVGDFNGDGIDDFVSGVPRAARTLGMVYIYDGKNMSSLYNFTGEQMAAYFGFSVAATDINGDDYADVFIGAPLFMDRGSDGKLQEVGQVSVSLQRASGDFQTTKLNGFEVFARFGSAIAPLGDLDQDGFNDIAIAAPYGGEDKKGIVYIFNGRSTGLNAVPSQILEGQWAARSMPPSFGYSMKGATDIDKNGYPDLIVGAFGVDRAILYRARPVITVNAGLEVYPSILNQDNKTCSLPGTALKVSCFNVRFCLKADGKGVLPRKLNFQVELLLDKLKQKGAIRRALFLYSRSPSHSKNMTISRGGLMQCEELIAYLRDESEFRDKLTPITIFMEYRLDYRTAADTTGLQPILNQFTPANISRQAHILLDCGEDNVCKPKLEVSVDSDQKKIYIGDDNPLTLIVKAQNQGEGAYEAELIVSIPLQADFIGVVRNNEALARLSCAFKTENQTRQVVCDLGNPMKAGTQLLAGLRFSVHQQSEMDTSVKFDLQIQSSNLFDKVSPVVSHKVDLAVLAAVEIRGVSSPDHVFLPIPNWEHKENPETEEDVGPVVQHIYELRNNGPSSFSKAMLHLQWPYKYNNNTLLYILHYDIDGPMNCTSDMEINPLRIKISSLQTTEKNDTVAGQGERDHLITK
T1 sequence (P06756 891-1048 partner limits assumed): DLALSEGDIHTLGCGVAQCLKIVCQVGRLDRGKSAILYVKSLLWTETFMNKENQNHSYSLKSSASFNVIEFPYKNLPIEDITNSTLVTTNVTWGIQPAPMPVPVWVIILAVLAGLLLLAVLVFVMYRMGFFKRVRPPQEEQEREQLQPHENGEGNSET
T1 sequence (P05106 27-788): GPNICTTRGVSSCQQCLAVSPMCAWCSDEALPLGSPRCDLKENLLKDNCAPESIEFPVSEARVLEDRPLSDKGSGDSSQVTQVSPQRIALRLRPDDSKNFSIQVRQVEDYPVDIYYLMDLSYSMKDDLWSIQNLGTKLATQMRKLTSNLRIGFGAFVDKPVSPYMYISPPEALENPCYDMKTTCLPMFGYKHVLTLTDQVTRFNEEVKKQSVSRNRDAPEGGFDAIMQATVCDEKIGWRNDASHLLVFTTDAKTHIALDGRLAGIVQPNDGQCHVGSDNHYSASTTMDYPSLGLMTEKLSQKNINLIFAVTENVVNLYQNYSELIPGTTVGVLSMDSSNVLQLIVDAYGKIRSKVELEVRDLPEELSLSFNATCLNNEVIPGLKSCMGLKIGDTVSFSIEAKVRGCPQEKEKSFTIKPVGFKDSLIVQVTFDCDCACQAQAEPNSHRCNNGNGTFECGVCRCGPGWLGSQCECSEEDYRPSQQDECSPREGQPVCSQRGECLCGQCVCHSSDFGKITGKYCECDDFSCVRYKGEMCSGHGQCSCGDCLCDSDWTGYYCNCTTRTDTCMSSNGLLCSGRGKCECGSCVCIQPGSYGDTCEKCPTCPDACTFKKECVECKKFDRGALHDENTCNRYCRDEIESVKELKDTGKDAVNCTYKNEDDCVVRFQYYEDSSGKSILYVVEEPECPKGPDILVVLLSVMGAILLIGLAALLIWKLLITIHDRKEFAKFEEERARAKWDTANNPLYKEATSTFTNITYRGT
Method: C-PAE cells were plated into 96-well plates as described above for the endothelial cell proliferation assay. Tumstatin at a final concentration of 0.1 μg/ml was incubated with varying concentrations (0, 0.008, 0.08, 0.8, 1.6 and 2.4 μg/ml) of human αvβ3 protein (CHEMICON Int'l, Temecula, Calif., USA) for 30 minutes at room temperature. This mixture was then added into the wells, and incubated for 48 hours. The proliferation assay was then performed using the methylene blue staining method, as described above for the endothelial cell proliferation assay.
The integrin αvβ3 was then investigated for its ability to reverse the anti-proliferative effects of Tumstatin and Tum-2. Tumstatin and Tum-2 were incubated with αvβ3 protein for 30 minutes, and added to C-PAE cells which were plated in 96-well plates and incubated overnight with growth media. After incubation for 48 hours, the cell number was determined by methylene blue staining.
Integrin αvβ3 was investigate for its ability to reverse the anti-proliferative affects of peptide T3. T3 peptide was incubated with 0, 0.001, 0.01, 0.1, 0.5, or 1.0 μg/ml αvβ3 integrin protein (CHEMICON Int'l, Temecula, Calif., USA) for 30 minutes at room temperature, and was then added, at 20 μg/ml final concentration, to C-PAE cells that had been grown in 96-well plates in growth media. After 48 hours of additional incubation, cell number was determined by the methylene blue assay. The results are shown in FIG. 43C, which is a histogram showing the growth of C-PAE cells (y-axis) when treated with T3 peptide that had been pre-incubated with varying concentrations (x-axis) of αvβ3 integrin.
Soluble αvβ3 integrin protein reversed the anti-proliferative effects of Tumstatin-44-131. This was shown by a competition proliferation assay as described above in Example 26. […] E. Coli-expressed Tumstatin-44-131 was then incubated with αvβ3 integrin protein for 30 minutes, and then added to C-PAE cells with 20% FCS. After 48 hours, cell proliferation was determined by methylene blue staining. The anti-proliferative affect of Tumstatin-44-131 was reversed dose-dependently with increasing concentrations of αvβ3 soluble protein.

Molecule: LQRFTTMPFLFCNVNDVCNF [T3]
- fold increase in Caspase-3 activity (Caspase-3 in C-PAE cells; 50 μg/ml T3 peptide, TNF-α 80 ng/ml): 3.6 fold
- fold increase in Caspase-3 activity (Caspase-3 in C-PAE cells; T3 peptide at 10 mg/ml (so in the source)): 1.6 fold
- Caspase-3 activity in nonendothelial PC-3 cells (Caspase-3 in PC-3 cells): no difference
- anti-proliferative effect after pre-incubation with αvβ3 integrin protein (human αvβ3 protein; peptide 20 μg/ml): significantly decreased

B1: Tum-2: residues 1 to 132 of Tumstatin (SEQ ID NO:23) (protein)
chain: GLKGKRGDSGSPATWTTRGFVFTRHSQTTAIPSCPEGTVPLYSGFSFLFVQGNQRAHGQDLGTLGSCLQRFTTMPFLFCNVNDVCNFASRNDYSYWLSTPALMPMNMAPITGRALEPYISRCTVCEGPAIAI
modifications: Tum-2 (amino acids 1-132 of SEQ ID NO10)
- effect on Caspase-3 activity (Caspase-3 in C-PAE cells): increased
- recovery of anti-proliferative effect by soluble αvβ3 protein (human αvβ3 protein; 2 g/ml αvβ3 protein (so in the source)): 74.1%

B2: Tumstatin-44-131: residues 44 to 131 of full-length Tumstatin (SEQ ID NO:33) (protein)
chain: FSFLFVQGNQRAHGQDLGTLGSCLQRFTTMPFLFCNVNDVCNFASRNDYSYWLSTPALMPMNMAPITGRALEPYISRCTVCEGPAIAI
modifications: Tumstatin-45-132 (amino acids 45-132 of SEQ ID NO10)
- fold increase in Caspase-3 activity (Caspase-3 in C-PAE cells; 10 μg/ml E. Coli-expressed Tumstatin-44-131, TNF-α 80 ng/ml): 4.5 fold
- Caspase-3 activity in nonendothelial PC-3 cells (Caspase-3 in PC-3 cells): not observed
- reversal of anti-proliferative effect by soluble αvβ3 protein (human αvβ3 protein; αvβ3 protein at 1 μg/ml, 20% FCS): 65.9%

B3: Tum-1: residues 54 to 244 of Tumstatin, lacking the N-terminal 53 amino acids (SEQ ID NO:22) (protein)
chain: QRAHGQDLGTLGSCLQRFTTMPFLFCNVNDVCNFASRNDYSYWLSTPALMPMNMAPITGRALEPYISRCTVCEGPAIAIAVHSQTTDIPPCPHGWISLWKGFSFIMFTSAGSEGTGQALASPGSCLEEFRASPFLECHGRGTCNYYSNSYSFWLASLNPERMFRKPIPSTVKAGELEKIISRCQVCMKKRH
modifications: Tum-1 (Tumstatin N-53) (amino acids 54-244 of SEQ ID NO10)
- effect on Caspase-3 activity (Caspase-3 in C-PAE cells): increased

B4: Tum-4: residues 181 to 244 of Tumstatin (SEQ ID NO:25) (protein)
chain: EFRASPFLECHGRGTCNYYSNSYSFWLASLNPERMFRKPIPSTVKAGELEKIISRCQVCMKKRH
modifications: Tum-4 (amino acids 181-244 of SEQ ID NO10)
- effect on Caspase-3 activity (Caspase-3 in C-PAE cells): did not

B5: Tumstatin: NC1 domain of the α3 chain of type IV collagen, residues 1-244 (SEQ ID NO:10) (protein, listed as Homo sapiens)
chain: GLKGKRGDSGSPATWTTRGFVFTRHSQTTAIPSCPEGTVPLYSGFSFLFVQGNQRAHGQDLGTLGSCLQRFTTMPFLFCNVNDVCNFASRNDYSYWLSTPALMPMNMAPITGRALEPYISRCTVCEGPAIAIAVHSQTTDIPPCPHGWISLWKGFSFIMFTSAGSEGTGQALASPGSCLEEFRASPFLECHGRGTCNYYSNSYSFWLASLNPERMFRKPIPSTVKAGELEKIISRCQVCMKKRH
- Caspase-3 activity in nonendothelial PC-3 cells (Caspase-3 in PC-3 cells): no difference
- reversal of anti-proliferative effect by soluble αvβ3 protein (human αvβ3 protein; αvβ3 at 2.4 μg/ml (3-fold molar excess), Tumstatin 0.1 μg/ml): 43.1%

Source: US7387779B2, “Anti-angiogenic proteins and fragments and methods of use thereof” (Beth Israel Deaconess Medical Center, priority 1998, dated 2008)
